Results from patent US20240002464A1 (published 2024).
Changes are numbered by the printed parent chain.

T1: HPV16 E6 peptide on HLA-A*02:01 (human)
T1 peptide: TIHDIILECV

B1: TCR1 (TCR, V domains shown)
Valpha: AQKVTQAQTEISVVEKEDVTLDCVYETRDTTYYLFWYKQPPSGELVFLIRRNSFDEQNEISGRYSWNFQKSTSSFNFTITASQVVDSAVYFCALRAGANNLFFGTGTRLTVIP
Vbeta: NAGVTQTPKFQVLKTGQSMTLQCAQDMNHNSMYWYRQDPGMGLRLIYYSASEGTTDKGEVPNGYNVSRLNKREFSLRLESAAPSQTSVYFCASGPWGSSGNTIYFGEGSWLTVV
B2: TCR2 (TCR, V domains shown)
Valpha: B1 Valpha with N100L, L101P, F102V
Vbeta: B1 Vbeta
B3: TCR4 (TCR, V domains shown)
Valpha: B1 Valpha with N99W, N100P, L101M, F102K
Vbeta: B1 Vbeta
B4: TCR3 (TCR, V domains shown)
Valpha: B1 Valpha with N100T, L101P, F102I
Vbeta: B1 Vbeta

Target: T1, HPV16 E6 peptide on HLA-A*02:01
Assay: Kd or kinetics
Protocol: In this example, the binding activity of the soluble TCR molecule obtained according to Example 2 to the […]-HLA A0201 complex was tested using a BIAcore T200 real-time analysis system. The […]-HLA A0201 complex was prepared by methods well known to those skilled in the art, mainly including purification, renaturation, repurification, and biotinylation. The anti-streptavidin antibody (GenScript) was added to the coupling buffer (10 mM sodium acetate buffer, pH 4.77), and then the antibody was passed through a CMS chip previously activated with EDC and NHS so that the antibody was immobilized on the chip surface, and finally the unreacted activated surface was blocked with a solution of ethanolamine in hydrochloric acid to complete the coupling. The coupling was at a level of about 15,000 RU. A low concentration of streptavidin was allowed to flow through the surface of the chip coated with the antibody, then the […]-HLA A0201 complex was allowed to flow through a detection channel, with the other channel serving as a reference channel. Then 0.05 mM of biotin was allowed to flow through the chip at a flow rate of 10 μL/min for 2 minutes, blocking the remaining binding site for streptavidin.
The kinetic parameters were calculated using the BIAcore Evaluation software to obtain the binding kinetic profiles of the soluble TCR molecules of the present disclosure binding to the […]-HLA A0201 complex, respectively, as shown in FIGS. 7a-7d. […] Also, the binding activity of the soluble TCR molecule of the present disclosure to several complexes of other unrelated antigen short peptides and HLA was also tested by the method.

Binder | binding result
B1 | recognises
B2 | recognises
B3 | recognises
B4 | recognises
